Results: article PMC6105893

Target: T1, LeuO (rLeuO) (Vibrio vulnificus MO6-24/O?) (UniProt A0A087INQ4)
T1 sequence: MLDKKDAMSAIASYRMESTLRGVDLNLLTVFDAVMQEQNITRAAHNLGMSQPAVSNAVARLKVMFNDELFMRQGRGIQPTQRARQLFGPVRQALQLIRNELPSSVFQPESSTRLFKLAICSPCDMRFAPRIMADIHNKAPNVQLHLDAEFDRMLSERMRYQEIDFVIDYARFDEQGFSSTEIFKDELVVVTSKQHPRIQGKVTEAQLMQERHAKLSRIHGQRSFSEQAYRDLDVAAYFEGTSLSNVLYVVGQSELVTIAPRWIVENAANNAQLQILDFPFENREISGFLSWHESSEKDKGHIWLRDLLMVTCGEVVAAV
Test: EMSA
Conditions: 10 mM Tris-HCl pH 7.4, 10 mM KCl, 1 mM EDTA, 0.1 mM DTT, 50 ug/ml BSA, 5% glycerol, 1 ug poly(dI-dC), 10 ng probe in 20 ul, 30 min at 37 C; 6% neutral …

GAGTTTGACGCTAAAAAATAGTGATGTGCAGCAAAAATAAGTAAAAGTTTACGCTGATAGGCTCGAAAAGGCTTGTCAGCGTTTTTTTTGGGAGCTAAGTTAGAGCTCGATGGCTGCCAGCCCTTTTAAGATAAGGCTTGGCGCTAATTTTTAGTATTAATGGAACGAAAGTCATCTAAAAAAATAATCACAGATGGCACAAAGGGGAATCACAGTGAACAAAACTCAACTAGTAGAATCAATCGCTGCAAACGCAGAT (double strand) [vhuB upstream region]
binding: binds
